{"source": "paper doi:10.1101/2021.04.03.438258", "molecular_target": "SARS-CoV-2 HexaPro S (SARS-CoV-2)", "test": "cryo-EM structure"}
{"substance": "SARS-CoV-2 HexaPro S (domain or fragment)", "values": [{"measurement": "stoichiometry N", "value": 3}]}
